Earlier results as cited in article PMC5403572.

How the values were obtained:
[1] = target: Asp228 (UniProt position 289, DKSIVDSGTTN); experiment: kinetics; settings: apo (free) enzyme
[2] = target: Asp32 (UniProt position 93, LNILVDTGSSN); experiment: kinetics; settings: apo (free) enzyme

## Beta-secretase 1 (BACE1, memapsin 2) (Homo sapiens)
[1]
  pKa: 3.5
[2]
  pKa: 5.2
